{
  "source": "patent US20190256585A1",
  "about": "(IMMUNEMED, published 2019)",
  "data": [
    {"target": "T1, VSF receptors on L929 cells infected with EMC-D virus (mouse, UniProt P20152 2-466)", "T1 construct": "also called receptors of hzVSF; VR", "T1 sequence (P20152 2-466 limits assumed, form in doubt)": "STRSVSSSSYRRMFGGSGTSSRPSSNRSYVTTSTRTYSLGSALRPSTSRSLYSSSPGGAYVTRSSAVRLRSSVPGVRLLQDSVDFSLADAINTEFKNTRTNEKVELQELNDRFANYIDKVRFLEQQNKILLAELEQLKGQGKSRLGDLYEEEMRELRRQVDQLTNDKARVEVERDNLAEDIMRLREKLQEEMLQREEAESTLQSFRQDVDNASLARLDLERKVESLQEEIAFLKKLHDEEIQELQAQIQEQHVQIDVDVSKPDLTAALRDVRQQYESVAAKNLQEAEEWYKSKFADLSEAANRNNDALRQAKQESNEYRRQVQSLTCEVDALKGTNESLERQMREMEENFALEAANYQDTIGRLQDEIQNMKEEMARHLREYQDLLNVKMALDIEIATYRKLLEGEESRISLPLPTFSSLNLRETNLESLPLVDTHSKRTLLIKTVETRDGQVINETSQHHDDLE", "test": "depletion of ligand from the culture supernatant of EMC-D-infected L929 cells (added minus recovered after 1 hour)", "experimental": "L929 cells were seeded at the amount of 6×10⁵ cells and infected with 2 MOI of EMC-D virus for 0, 2, 6, and 10 hours, respectively. […] The difference between the amount of each ligand added and the amount of the collected ligand after reaction is the amount of the ligand bound to the receptors, and based on the result, the affinity constant (Ka) and the dissociation constant (Kd) were calculated (Table 11).", "units": {"Ka": "M⁻¹", "Kd": "nM"}, "values": [
      {"binder": "mouse virus suppressing factor (mVSF) (antibody, V domains shown, also called mouse VSF) VH: EIQLQQSGAELVKPGASVKISCKASGYSFTGYNMNWVKQSHGKSLEWIGNIDPYYGSTTYNQKFKGKATLTVDKSSSTAYMQLNSLTSEDSAVYYCARETGTRAMDYWGQGTSVTVSS VL: DIQMTQSPASLSASVGETVTMTCRASENIYSNLAWYQQKQGKSPQLLVYVATNLADGVPSRFSGSGSGTQFSLKINSLQPEDFGSYYCQHFYGSPRTFGGGTKLEIKR", "Ka": "2.1e+10", "Kd": 0.047},
      {"binder": "humanized virus suppressing factor wild-type (hzVSF_wt) (antibody, V domains shown, also called hzVSF wild-type) VH: EVQLVQSGAEVKKPGASVKVSCKASGYTFTGYNMNWVRQAPGKGLEWMGNIDPYYGSTTYAQKFQGRVTMTVDKSISTAYMELSRLRSDDTAVYYCARETGTRAMDYWGQGTLVTVSS VL: DIQMTQSPSSLSASVGDRVTITCRASENIYSNLAWYQQKPGKAPKLLIYVATNLADGVPSRFSGSGSGTDFTLTISSLQPEDFATYYCQHFYGSPRTFGGGTKVEIK", "Ka": "8.2e+09", "Kd": 0.12},
      {"binder": "hzVSF_var13 (antibody, V domains shown, constant regions not tied to this variant; also called hzVSF v13) VH: EVQLVQSGAEVKKPGASVKVSCKASGYTFTGYNMNWVRQAPGKGLEWMGNIDPYYGSDTYAQKFQGRVTMTVDKSISTAYMELSRLRSDDTAVYYCARETGTRAMDYWGQGTLVTVSS VL: DIQMTQSPSSLSASVGDRVTITCRASENIYSNLAWYQQKPGKAPKLLIYVADNLADGVPSRFSGSGSGTDFTLTISSLQPEDFATYYCQHFYGSPRTFGGGTKVEIK", "Ka": "1.7e+10", "Kd": 0.059}
    ]},
    {"target": "isolated peptide of SEQ ID NO: 1 (vimentin amino acid positions 142 to 294)", "test": "method not described (refers to FIGS. 54 to 58)", "values": [
      {"binder": "humanized virus suppressing factor wild-type (hzVSF_wt) (antibody, V domains shown, also called hzVSF wild-type) VH: EVQLVQSGAEVKKPGASVKVSCKASGYTFTGYNMNWVRQAPGKGLEWMGNIDPYYGSTTYAQKFQGRVTMTVDKSISTAYMELSRLRSDDTAVYYCARETGTRAMDYWGQGTLVTVSS VL: DIQMTQSPSSLSASVGDRVTITCRASENIYSNLAWYQQKPGKAPKLLIYVATNLADGVPSRFSGSGSGTDFTLTISSLQPEDFATYYCQHFYGSPRTFGGGTKVEIK", "binding result": "binds"},
      {"binder": "hzVSF_var1 (antibody, V domains shown, Humanized IgG variant of hzVSF; constant regions not tied to this variant; also called hzVSF_1) VH: EVQLVQSGAEVKKPGASVKVSCKASGYTFTGYNMNWVRQAPGKGLEWMGNIDPYYGSTTYAQKFQGRVTMTVDKSISTAYMELSRLRSDDTAVYYCARETGTRAMDYWGQGTLVTVSS VL: DIQMTQSPSSLSASVGDRVTITCRASENIYSNLAWYQQKPGKAPKLLIYVADNLADGVPSRFSGSGSGTDFTLTISSLQPEDFATYYCQHFYGSPRTFGGGTKVEIK", "binding result": "binds"},
      {"binder": "hzVSF_var2 (antibody, V domains shown, Humanized IgG variant of hzVSF; constant regions not tied to this variant) VH: EVQLVQSGAEVKKPGASVKVSCKASGYTFTGYNMNWVRQAPGKGLEWMGNIDPYYGSTTYAQKFQGRVTMTVDKSISTAYMELSRLRSDDTAVYYCARETGTRAMDYWGQGTLVTVSS VL: DIQMTQSPSSLSASVGDRVTITCRASENIYSNLAWYQQKPGKAPKLLIYVADNLGDGVPSRFSGSGSGTDFTLTISSLQPEDFATYYCQHFYGSPRTFGGGTKVEIK", "binding result": "binds"},
      {"binder": "hzVSF_var3 (antibody, V domains shown, Humanized IgG variant of hzVSF; constant regions not tied to this variant) VH: EVQLVQSGAEVKKPGASVKVSCKASGYTFTGYNMNWVRQAPGKGLEWMGNIDPYYGSTTYAQKFQGRVTMTVDKSISTAYMELSRLRSDDTAVYYCARETGTRAMDYWGQGTLVTVSS VL: DIQMTQSPSSLSASVGDRVTITCRASENIYSNLAWYQQKPGKAPKLLIYVADNRGDGVPSRFSGSGSGTDFTLTISSLQPEDFATYYCQHFYGSPRTFGGGTKVEIK", "binding result": "binds"},
      {"binder": "hzVSF_var4 (antibody, V domains shown, Humanized IgG variant of hzVSF; constant regions not tied to this variant) VH: EVQLVQSGAEVKKPGASVKVSCKASGYTFTGYNMNWVRQAPGKGLEWMGNIDPYYGSTTYAQKFQGRVTMTVDKSISTAYMELSRLRSDDTAVYYCARETGTRAMDYWGQGTLVTVSS VL: DIQMTQSPSSLSASVGDRVTITCRASENIYSNLAWYQQKPGKAPKLLIYVADNRGDGVPSRFSGSGSGTDFTLTISSLQPEDFATYYCQHFYGTPRTFGGGTKVEIK", "binding result": "binds"},
      {"binder": "hzVSF_var5 (antibody, V domains shown, Humanized IgG variant of hzVSF; constant regions not tied to this variant) VH: EVQLVQSGAEVKKPGASVKVSCKASGYTFTGYNMNWVRQAPGKGLEWMGNIDPYYGSDTYAQKFQGRVTMTVDKSISTAYMELSRLRSDDTAVYYCARETGTRAMDYWGQGTLVTVSS VL: DIQMTQSPSSLSASVGDRVTITCRASENIYSNLAWYQQKPGKAPKLLIYVATNLADGVPSRFSGSGSGTDFTLTISSLQPEDFATYYCQHFYGSPRTFGGGTKVEIK", "binding result": "binds"},
      {"binder": "hzVSF_var6 (antibody, V domains shown, Humanized IgG variant of hzVSF; constant regions not tied to this variant) VH: EVQLVQSGAEVKKPGASVKVSCKASGYTFTGYNMNWVRQAPGKGLEWMGNIDPYYGSTTYAQKFQGRVTMTVDTSASTAYMELSRLRSDDTAVYYCARETGTRAMDYWGQGTLVTVSS VL: DIQMTQSPSSLSASVGDRVTITCRASENIYSNLAWYQQKPGKAPKLLIYVATNLADGVPSRFSGSGSGTDFTLTISSLQPEDFATYYCQHFYGSPRTFGGGTKVEIK", "binding result": "binds"},
      {"binder": "hzVSF_var7 (antibody, V domains shown, Humanized IgG variant of hzVSF; constant regions not tied to this variant) VH: EVQLVQSGAEVKKPGASVKVSCKASGYTFTGYNMNWVRQAPGKGLEWMGNIDPYYGSDTYAQKFQGRVTMTVDTSASTAYMELSRLRSDDTAVYYCARETGTRAMDYWGQGTLVTVSS VL: DIQMTQSPSSLSASVGDRVTITCRASENIYSNLAWYQQKPGKAPKLLIYVATNLADGVPSRFSGSGSGTDFTLTISSLQPEDFATYYCQHFYGSPRTFGGGTKVEIK", "binding result": "binds"},
      {"binder": "hzVSF_var8 (antibody, V domains shown, Humanized IgG variant of hzVSF; constant regions not tied to this variant) VH: EVQLVQSGAEVKKPGASVKVSCKASGYTFTGYNMNWVRQAPGKGLEWMGNIDPYYGSDTYAQKFQGRVTMTVDTSASTAYMELSRLRSDDTAVYYCARETGNRAMDYWGQGTLVTVSS VL: DIQMTQSPSSLSASVGDRVTITCRASENIYSNLAWYQQKPGKAPKLLIYVATNLADGVPSRFSGSGSGTDFTLTISSLQPEDFATYYCQHFYGSPRTFGGGTKVEIK", "binding result": "binds"},
      {"binder": "hzVSF_var9 (antibody, V domains shown, Humanized IgG variant of hzVSF; constant regions not tied to this variant) VH: EVQLVQSGAEVKKPGASVKVSCKASGYTFTGYNMNWVRQAPGKGLEWMGNIDPYYGSDTYAQKFQGRVTMTVDTSASTAYMELSRLRSDDTAVYYCARETGTRAMDYWGQGTLVTVSS VL: DIQMTQSPSSLSASVGDRVTITCRASENIYSNLAWYQQKPGKAPKLLIYVADNRGDGVPSRFSGSGSGTDFTLTISSLQPEDFATYYCQHFYGSPRTFGGGTKVEIK", "binding result": "binds"},
      {"binder": "hzVSF_var10 (antibody, V domains shown, Humanized IgG variant of hzVSF; constant regions not tied to this variant) VH: EVQLVQSGAEVKKPGASVKVSCKASGYTFTGYNMNWVRQAPGKGLEWMGNIDPYYGSDTYAQKFQGRVTMTVDTSASTAYMELSRLRSDDTAVYYCARETGNRAMDYWGQGTLVTVSS VL: DIQMTQSPSSLSASVGDRVTITCRASENIYSNLAWYQQKPGKAPKLLIYVADNRGDGVPSRFSGSGSGTDFTLTISSLQPEDFATYYCQHFYGSPRTFGGGTKVEIK", "binding result": "binds"},
      {"binder": "hzVSF_var11 (antibody, V domains shown, Humanized IgG variant of hzVSF; constant regions not tied to this variant) VH: EVQLVQSGAEVKKPGASVKVSCKASGYTFTGYNMNWVRQAPGKGLEWMGNIDPYYGSDTYAQKFQGRVTMTVDTSASTAYMELSRLRSDDTAVYYCARETGTRAMDYWGQGTLVTVSS VL: DIQMTQSPSSLSASVGDRVTITCRASENIYSNLAWYQQKPGKAPKLLIYVADNRGDGVPSRFSGSGSGTDFTLTISSLQPEDFATYYCQHFYGTPRTFGGGTKVEIK", "binding result": "binds"},
      {"binder": "hzVSF_var12 (antibody, V domains shown, Humanized IgG variant of hzVSF; constant regions not tied to this variant) VH: EVQLVQSGAEVKKPGASVKVSCKASGYTFTGYNMNWVRQAPGKGLEWMGNIDPYYGSDTYAQKFQGRVTMTVDTSASTAYMELSRLRSDDTAVYYCARETGNRAMDYWGQGTLVTVSS VL: DIQMTQSPSSLSASVGDRVTITCRASENIYSNLAWYQQKPGKAPKLLIYVADNRGDGVPSRFSGSGSGTDFTLTISSLQPEDFATYYCQHFYGTPRTFGGGTKVEIK", "binding result": "binds"},
      {"binder": "hzVSF_var13 (antibody, V domains shown, constant regions not tied to this variant; also called hzVSF v13) VH: EVQLVQSGAEVKKPGASVKVSCKASGYTFTGYNMNWVRQAPGKGLEWMGNIDPYYGSDTYAQKFQGRVTMTVDKSISTAYMELSRLRSDDTAVYYCARETGTRAMDYWGQGTLVTVSS VL: DIQMTQSPSSLSASVGDRVTITCRASENIYSNLAWYQQKPGKAPKLLIYVADNLADGVPSRFSGSGSGTDFTLTISSLQPEDFATYYCQHFYGSPRTFGGGTKVEIK", "binding result": "binds"}
    ]}
  ]
}
